According to article PMC4834876:

Target: F-actin (filamentous actin) from rabbit muscle (rabbit), P68135
Assay: co-sedimentation
Settings: remark: other sources report otherwise

B1: EB1 full-length (end-binding protein 1), wild type, Q15691 1-268 (natural protein)
chain: MAVNVYSTSVTSDNLSRHDMLAWINESLQLNLTKIEQLCSGAAYCQFMDMLFPGSIALKKVKFQAKLEHEYIQNFKILQAGFKRMGVDKIIPVDKLVKGKFQDNFEFVQWFKKFFDANYDGKDYDPVAARQGQETAVAPSLVAPALNKPKKPLTSSSAAPQRPISTQRTAAAPKAGPGVVRKNPGVGNGDDEAAELMQQVNVLKLTVEDLEKERDFYFGKLRNIELICQENEGENDPVLQRIVDILYATDEGFVIPDEGGPQEEQEEY
percent co-pelleted (with APC-C1 added): 50%
